# In patent CN115141270A (SHENZHEN KANGMAI BIOTECHNOLOGY CO LTD, dated 2022):
# B1: 抗体nCoV617 (anti-coronavirus spike glycoprotein human monoclonal antibody) (antibody, V domains shown)
# VH: QVQLVESGGGVVQPGRSLRLSCAASGFTFSSYAMHWVRQAPGKGLEWVALISYDGSNKYYADSVKGRFTISRDNSKNTLYLQMNSLRAEDTAVYYCARGLGLRFLEWPISSYWGQGTLVTVSS
# VL: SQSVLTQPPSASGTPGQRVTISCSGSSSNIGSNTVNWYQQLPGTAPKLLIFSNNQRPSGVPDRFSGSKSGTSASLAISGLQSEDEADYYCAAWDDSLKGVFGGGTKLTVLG
# notes: also called 抗S蛋白抗体; 抗冠状病毒刺突糖蛋白单克隆抗体
# Experiments:
# [1] = molecular target: SARS-CoV-2 东南亚株 (MW341443) live virus, spike glycoprotein (SARS-CoV-2); assay: cell-based or functional assay
# [2] = molecular target: SARS-CoV-2 英国流行株 (MW255832) live virus, spike glycoprotein (SARS-CoV-2); assay: cell-based or functional assay
binder,measurement,setting,value
B1,"IC50 (neutralisation of live virus on Vero E6 cells, cytopathic effect)",[1],0.87 µg/mL
same,"IC50 (neutralisation of live virus on Vero E6 cells, cytopathic effect)",[2],1.1 µg/mL
